Measured values taken from patent publication US20240417453A1 (ANWITA BIOSCIENCES, published 2024).
Numbering of substitutions follows the chain as printed. In names and notes the source's numbering stands.

T1: human IL-2Rβ (CD122) (human, UniProt P14784 27-239)
T1 construct: also called hIL-2Rβ
T1 sequence: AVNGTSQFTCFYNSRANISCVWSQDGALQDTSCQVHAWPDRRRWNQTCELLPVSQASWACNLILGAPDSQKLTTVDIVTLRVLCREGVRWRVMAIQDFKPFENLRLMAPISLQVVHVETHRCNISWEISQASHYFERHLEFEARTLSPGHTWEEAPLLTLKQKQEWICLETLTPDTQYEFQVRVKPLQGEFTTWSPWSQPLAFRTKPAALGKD

T2: human IL-2Rα (CD25) (human, UniProt P01589 22-240, limits assumed)
T2 construct: also called hIL-2Rα
T2 sequence: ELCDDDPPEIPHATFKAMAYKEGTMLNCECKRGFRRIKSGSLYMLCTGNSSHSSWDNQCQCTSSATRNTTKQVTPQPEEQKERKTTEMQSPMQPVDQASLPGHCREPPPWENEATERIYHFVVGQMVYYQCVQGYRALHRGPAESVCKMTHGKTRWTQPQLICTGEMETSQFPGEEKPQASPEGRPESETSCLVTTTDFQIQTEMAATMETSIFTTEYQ

B1: Anti-HSA-IL-2 A2 (IL-2-IL15 chimera 12) (other)
chain: QVQLVESGGGVVQPGGSLRLSCAASGFAFRGFGMSWVRQAPGKGLEWVSSINNGGSDTYYADSVKGRFTISRDNSKNTLYLQMNSLRAEDTAVYYCAIGGPGASPSGQGTQVTVSSGGGGSGGGGSGGGGSAPTSSSTKKTQLQLKHLLLDLQMILNGIQSMHIDATTFKFYMPKKATELKHLQCLEEELKPLEEVLNLAQSKNFHLRPRDLISNINVIVLELKGSETTFMCEYADETATIVEFLNRWITFSQSIISTLT
notes: E15K, C125S); Produced in CHO cells; also called anti-HSA-hIL-2 fusion protein A2
B2: Anti-HSA-IL-2 A1 (IL-2-IL15 chimera 7) (other)
chain: B1 chain with H163E
notes: E15K, C125S); Produced in CHO cells; also called anti-HSA-hIL-2 fusion protein A1
B3: Anti-HSA-IL-2 A15 (IL-2-IL15 chimera 12) (other)
chain: B1 chain with G117A, G118S, G119T, G120K, S121G
notes: Produced in CHO cells; also called anti-HSA-hIL-2 fusion protein A15
B4: Anti-HSA-IL-2 A3 (IL-2-IL15 chimera 7) (other)
chain: EVQLVESGGGLVQPGGSLRLSCAASGSTWSINTLAWYRQAPGKQRDLVARISSGGSTYYADSVKGRFTISRDNSKNTLYLQMNSLRAEDTAVYYCYAQSTWYPPSWGQGTLVTVSSGGGGSGGGGSGGGGSAPTSSSTKKTQLQLKHLLLDLQMILNGIQSMEIDATTFKFYMPKKATELKHLQCLEEELKPLEEVLNLAQSKNFHLRPRDLISNINVIVLELKGSETTFMCEYADETATIVEFLNRWITFSQSIISTLT
notes: Produced in CHO cells; also called anti-HSA-hIL-2 fusion protein A3
B5: Anti-HSA-IL-2 A17 (IL-2-IL15 chimera 12) (other)
chain: B4 chain with G117A, G118S, G119T, G120K, S121G, E163H
notes: Produced in CHO cells; also called anti-HSA-hIL-2 fusion protein A17
B6: Anti-HSA-IL-2 A4 (IL-2-IL15 chimera 12) (other)
chain: B4 chain with E163H
notes: Produced in CHO cells; also called anti-HSA-hIL-2 fusion protein A4

What follows are binders tested against T1, human IL-2Rβ (CD122) (assay: BLI (OCTET RED96), receptor loaded on biosensor, global fitting).
Protocol: (§1) OCTET® RED96 was used to characterize the interactions of anti-HSA-hIL-2 fusion proteins with human IL-2Rα (CD25) and IL-2Rβ (CD122). Briefly, hIL-2Rα and hIL-2Rβ were each loaded onto a biosensor. Each biosensor was then dipped into a solution containing an anti-HSA-hIL-2 fusion protein at 10 to 2,000 nM. Primary experimental data was analyzed with global fitting to determine a binding affinity (Kd).

Row | Kd [nM] | Binder
1 | 139 | B1
2 | 55 | B2
3 | 94 | B3

These binders were tested against T2, human IL-2Rα (CD25) (assay: BLI (OCTET RED96), receptor loaded on biosensor, fusion protein in solution).
Protocol: as §1

Row | binding result | Binder
4 | no binding (tested: 10 to 2,000 nM) | B4
5 | no binding (tested: 10 to 2,000 nM) | B5
6 | no binding (tested: 10 to 2,000 nM) | B2
7 | no binding (tested: 10 to 2,000 nM) | B3

These binders were tested against T2, human IL-2Rα (CD25) (assay: BLI (OCTET RED96), hIL-2Rα loaded on the biosensor, fusion protein in solution at 33.3, 100 and 300 nM).
Protocol: as §1

Row | binding result | Binder
8 | no binding (tested: 300 nM) | B6
9 | no binding (tested: 300 nM) | B1
